Measured values from US20150165065A1 (AVIDBIOTICS, published 2015).
Substitutions are numbered along the chain they refer to.

B1: soluble MICA generated from pKK38 (loop 1 insert 3.3) (designed binder)
chain: HHHHHHEPHSLRYNLTVLSWDGSVQSGFLTEVHLDGQPFLRCDRQKCRAKPQGQWAEDVLGNKTWDRETRDLTGNGKDLRMTLAHIKDQKEGLHSLQEIRVCEIHEDNSTRSSQHFYYDGELFLSQNLETEEWTMPQSSRAQTLAMNVRNFLKEDAMKTKTHYHAMHADCLQELRRYLKSGVVLRRTVPPMVNVTRVPRGDSDLTVTCRASGFYPWNITLSWRQDGVSLSHDTQQWGDVLPDGNGTYQTWVATRICQGEEQRFTCYMEHSGNHSTHPVPSGK
notes: From pKK34 (His6, Glu125); secreted by 293T cells; also called 1-3.3
B2: soluble MICA generated from pKK42 (loop 1 insert 5.3) (designed binder)
chain: B1 chain with R196H, V197L, P198A, S202D, D203L, L204T, T205Y
notes: From pKK34 (His6, Glu125); secreted by 293T cells; also called 1-5.3
B3: soluble MICA generated from pKK39 (loop 1 insert 3.4) (designed binder)
chain: B1 chain with V197S, P198A, L204H, T205R
notes: From pKK34 (His6, Glu125); secreted by 293T cells; also called 1-3.4
B4: soluble MICA generated from pKK40 (loop 1 insert 5.1) (designed binder)
chain: B1 chain with R196V, V197T, P198R, R199G, G200D, D201T, S202F, D203T, L204Q, T205S
notes: From pKK34 (His6, Glu125); secreted by 293T cells; also called 1-5.1
B5: soluble MICA generated from pKK36 (loop 1 insert 3.1) (designed binder)
chain: HHHHHHEPHSLRYNLTVLSWDGSVQSGFLTEVHLDGQPFLRCDRQKCRAKPQGQWAEDVLGNKTWDRETRDLTGNGKDLRMTLAHIKDQKEGLHSLQEIRVCEIHEDNSTRSSQHFYYDGELFLSQNLETEEWTMPQSSRAQTLAMNVRNFLKEDAMKTKTHYHAMHADCLQELRRYLKSGVVLRRTVPPMVNVTSRGDHPRTQVTCRASGFYPWNITLSWRQDGVSLSHDTQQWGDVLPDGNGTYQTWVATRICQGEEQRFTCYMEHSGNHSTHPVPSGK
notes: From pKK34 (His6, Glu125); secreted by 293T cells; also called 1-3.1
B6: soluble MICA generated from pKK37 (loop 1 insert 3.2) (designed binder)
chain: HHHHHHEPHSLRYNLTVLSWDGSVQSGFLTEVHLDGQPFLRCDRQKCRAKPQGQWAEDVLGNKTWDRETRDLTGNGKDLRMTLAHIKDQKEGLHSLQEIRVCEIHEDNSTRSSQHFYYDGELFLSQNLETEEWTMPQSSRAQTLAMNVRNFLKEDAMKTKTHYHAMHADCLQELRRYLKSGVVLRRTVPPMVNVTRTSRGDHPRTQVTCRASGFYPWNITLSWRQDGVSLSHDTQQWGDVLPDGNGTYQTWVATRICQGEEQRFTCYMEHSGNHSTHPVPSGK
notes: From pKK34 (His6, Glu125); secreted by 293T cells; also called 1-3.2
B7: soluble MICA generated from pKK48 (loop 3 insert extended 3.2sp) (designed binder)
chain: EPHSLRYNLTVLSWDGSVQSGFLTEVHLDGQPFLRCDRQKCRAKPQGQWAEDVLGNKTWDRETRDLTGNGKDLRMTLAHIKDQKEGLHSLQEIRVCEIHEDNSTRSSQHFYYDGELFLSQNLETKEWTMPQSSRAQTLAMNVRNFLKEDAMKTKTHYHAMHADCLQELRRYLKSGVVLRRTVPPMVNVTRSEASEGNITVTCRASGFYPWNITLSWRQDGVSLSHDTQQWGDVLPDGNGTYQTWVATRISGGSGGGSTSRGDHPRTQSGGSGGGCYMEHSGNHSTHPVPSGK
notes: From pSW276 (no N-terminal His tag, Lys125); secreted by 293T cells; also called 3-3.2sp
B8: soluble MICA generated from pKK49 (loop 3 insert extended 3.3sp) (designed binder)
chain: B7 chain with T258R, S259V, R260P, G261R, D262G, H263D, P264S, R265D, T266L, Q267T
notes: From pSW276 (no N-terminal His tag, Lys125); secreted by 293T cells; also called 3-3.3sp
B9: soluble MICA generated from pKK51 (loop 3 insert extended 5.3sp) (designed binder)
chain: B7 chain with T258H, S259L, R260A, G261R, D262G, H263D, P264D, R265L, Q267Y
notes: From pSW276 (no N-terminal His tag, Lys125); secreted by 293T cells; also called 3-5.3sp
B10: soluble MICA generated from pKK50 (loop 3 insert extended 5.1sp) (designed binder)
chain: B7 chain with T258V, S259T, H263T, P264F, R265T, T266Q, Q267S
notes: From pSW276 (no N-terminal His tag, Lys125); secreted by 293T cells; also called 3-5.1sp
B11: soluble MICA generated from pKK41 (loop 1 insert 5.2) (designed binder)
chain: HHHHHHEPHSLRYNLTVLSWDGSVQSGFLTEVHLDGQPFLRCDRQKCRAKPQGQWAEDVLGNKTWDRETRDLTGNGKDLRMTLAHIKDQKEGLHSLQEIRVCEIHEDNSTRSSQHFYYDGELFLSQNLETEEWTMPQSSRAQTLAMNVRNFLKEDAMKTKTHYHAMHADCLQELRRYLKSGVVLRRTVPPMVNVTRGDTFTQSVTCRASGFYPWNITLSWRQDGVSLSHDTQQWGDVLPDGNGTYQTWVATRICQGEEQRFTCYMEHSGNHSTHPVPSGK
notes: From pKK34 (His6, Glu125); secreted by 293T cells; also called 1-5.2
B12: soluble MICA generated from pKK44 (loop 1 insert extended 3.2sp) (designed binder)
chain: HHHHHHEPHSLRYNLTVLSWDGSVQSGFLTEVHLDGQPFLRCDRQKCRAKPQGQWAEDVLGNKTWDRETRDLTGNGKDLRMTLAHIKDQKEGLHSLQEIRVCEIHEDNSTRSSQHFYYDGELFLSQNLETEEWTMPQSSRAQTLAMNVRNFLKEDAMKTKTHYHAMHADCLQELRRYLKSGVVLRRTVPPMVNVTSGGSGGGSTSRGDHPRTQSGGSGGGVTCRASGFYPWNITLSWRQDGVSLSHDTQQWGDVLPDGNGTYQTWVATRICQGEEQRFTCYMEHSGNHSTHPVPSGK
notes: From pKK34 (His6, Glu125); secreted by 293T cells; also called 1-3.2sp

The binders below were run against T1, integrin αVβ3 (UniProt P06756 31-992; P05106 27-718) (assay: ELISA, coated integrin, anti-MICA-HRP).
T1 construct: Coated on the ELISA plate
T1 sequence (P06756 31-992, chain 1 of 2): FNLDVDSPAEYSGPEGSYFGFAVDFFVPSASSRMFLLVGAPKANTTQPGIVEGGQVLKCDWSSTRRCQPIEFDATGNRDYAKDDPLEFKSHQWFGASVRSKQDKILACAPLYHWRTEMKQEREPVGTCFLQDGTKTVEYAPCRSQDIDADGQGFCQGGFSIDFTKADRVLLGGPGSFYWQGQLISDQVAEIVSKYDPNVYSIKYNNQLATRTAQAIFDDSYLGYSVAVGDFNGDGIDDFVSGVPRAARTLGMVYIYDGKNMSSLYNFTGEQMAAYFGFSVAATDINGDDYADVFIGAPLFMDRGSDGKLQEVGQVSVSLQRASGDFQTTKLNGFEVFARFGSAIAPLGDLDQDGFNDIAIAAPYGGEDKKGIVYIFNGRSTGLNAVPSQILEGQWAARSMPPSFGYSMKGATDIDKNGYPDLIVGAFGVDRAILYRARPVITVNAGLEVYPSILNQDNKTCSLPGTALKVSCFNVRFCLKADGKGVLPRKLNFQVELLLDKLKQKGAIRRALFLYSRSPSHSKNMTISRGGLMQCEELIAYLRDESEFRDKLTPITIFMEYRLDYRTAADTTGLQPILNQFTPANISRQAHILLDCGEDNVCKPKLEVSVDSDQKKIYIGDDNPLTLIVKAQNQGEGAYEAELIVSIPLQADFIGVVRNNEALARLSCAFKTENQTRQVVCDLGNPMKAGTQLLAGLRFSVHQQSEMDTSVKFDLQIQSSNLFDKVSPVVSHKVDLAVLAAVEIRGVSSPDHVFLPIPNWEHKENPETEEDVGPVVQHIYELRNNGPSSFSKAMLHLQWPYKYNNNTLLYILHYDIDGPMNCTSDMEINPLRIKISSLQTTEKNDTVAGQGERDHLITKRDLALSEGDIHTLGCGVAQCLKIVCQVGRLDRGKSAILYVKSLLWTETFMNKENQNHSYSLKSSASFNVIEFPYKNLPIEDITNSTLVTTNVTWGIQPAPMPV
T1 sequence (P05106 27-718, chain 2 of 2): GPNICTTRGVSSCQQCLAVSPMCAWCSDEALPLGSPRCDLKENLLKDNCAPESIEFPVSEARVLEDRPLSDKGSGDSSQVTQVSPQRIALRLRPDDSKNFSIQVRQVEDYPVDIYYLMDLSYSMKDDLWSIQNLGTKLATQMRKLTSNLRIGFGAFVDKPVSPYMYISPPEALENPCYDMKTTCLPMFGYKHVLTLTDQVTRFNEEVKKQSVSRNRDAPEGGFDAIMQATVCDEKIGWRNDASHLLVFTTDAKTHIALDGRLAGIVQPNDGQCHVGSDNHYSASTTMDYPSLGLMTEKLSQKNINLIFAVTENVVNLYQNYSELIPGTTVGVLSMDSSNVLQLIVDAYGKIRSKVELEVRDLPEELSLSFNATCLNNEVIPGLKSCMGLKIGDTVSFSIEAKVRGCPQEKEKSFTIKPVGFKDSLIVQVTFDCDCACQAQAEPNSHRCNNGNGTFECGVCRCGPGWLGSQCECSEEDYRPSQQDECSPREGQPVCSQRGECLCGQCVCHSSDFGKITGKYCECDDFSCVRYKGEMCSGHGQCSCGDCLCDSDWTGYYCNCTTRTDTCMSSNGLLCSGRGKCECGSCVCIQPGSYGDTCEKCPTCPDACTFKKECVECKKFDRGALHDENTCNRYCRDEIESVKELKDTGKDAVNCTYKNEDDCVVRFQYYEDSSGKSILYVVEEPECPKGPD
Procedure: (§1) The ability of the soluble MICA molecules in each of the concentrated supernatants to bind target molecules was assayed by an ELISA using the intended target proteins, integrin αVβ3 or αVβ5, as capture agents on the ELISA plate. After the respective integrins were adhered to the bottoms of the wells of the ELISA plate, the wells were washed and blocked, as well known in the field. Each sample (100 μl) of soluble MICA produced and secreted by 293T cells was added to wells containing αVβ3 or αVβ5, incubated and washed. The soluble MICA molecules captured by the integrins were detected by HRP-conjugated antibody to human MICA developed with Ultra TMB-ELISA substrate and the optical densities read. The quantity of soluble MICA in each sample was determined by the MICA-specific ELISA. […] The ELISA signal from a non-binding, negative control MICA (generated by pSW273) was subtracted from each integrin binding signal.

Point of comparison: B9, αvβ3 signal 0.694 OD. Against it:
- B1 — lower, 0.291 OD
- B2 — lower, 0.526 OD
- B3 — lower, 0.482 OD
- B4 — lower, 0.485 OD
- B5 — lower, 0.55 OD
- B6 — higher, 0.777 OD
- B7 — lower, 0.478 OD
- B8 — lower, 0.508 OD
- B10 — lower, 0.546 OD
- B11 — lower, 0.516 OD
- B12 — lower, 0.41 OD

Point of comparison: B6, αvβ3 signal/ng 22.4 signal/ng MICA. Against it:
- B1 — higher, 30.7 signal/ng MICA
- B2 — lower, 21.2 signal/ng MICA
- B3 — lower, 18 signal/ng MICA
- B4 — lower, 19.5 signal/ng MICA
- B5 — lower, 19 signal/ng MICA
- B7 — lower, 6.08 signal/ng MICA
- B8 — lower, 5.86 signal/ng MICA
- B9 — lower, 7.2 signal/ng MICA
- B10 — lower, 5.85 signal/ng MICA
- B11 — lower, 17.7 signal/ng MICA
- B12 — lower, 8.92 signal/ng MICA

The binders below were run against T2, integrin αVβ5 (UniProt P06756 31-992; P18084 24-719) (assay: ELISA, coated integrin, anti-MICA-HRP).
T2 construct: Coated on the ELISA plate
T2 sequence (P06756 31-992, chain 1 of 2): as the sequence (P06756 31-992, chain 1 of 2) above
T2 sequence (P18084 24-719, chain 2 of 2): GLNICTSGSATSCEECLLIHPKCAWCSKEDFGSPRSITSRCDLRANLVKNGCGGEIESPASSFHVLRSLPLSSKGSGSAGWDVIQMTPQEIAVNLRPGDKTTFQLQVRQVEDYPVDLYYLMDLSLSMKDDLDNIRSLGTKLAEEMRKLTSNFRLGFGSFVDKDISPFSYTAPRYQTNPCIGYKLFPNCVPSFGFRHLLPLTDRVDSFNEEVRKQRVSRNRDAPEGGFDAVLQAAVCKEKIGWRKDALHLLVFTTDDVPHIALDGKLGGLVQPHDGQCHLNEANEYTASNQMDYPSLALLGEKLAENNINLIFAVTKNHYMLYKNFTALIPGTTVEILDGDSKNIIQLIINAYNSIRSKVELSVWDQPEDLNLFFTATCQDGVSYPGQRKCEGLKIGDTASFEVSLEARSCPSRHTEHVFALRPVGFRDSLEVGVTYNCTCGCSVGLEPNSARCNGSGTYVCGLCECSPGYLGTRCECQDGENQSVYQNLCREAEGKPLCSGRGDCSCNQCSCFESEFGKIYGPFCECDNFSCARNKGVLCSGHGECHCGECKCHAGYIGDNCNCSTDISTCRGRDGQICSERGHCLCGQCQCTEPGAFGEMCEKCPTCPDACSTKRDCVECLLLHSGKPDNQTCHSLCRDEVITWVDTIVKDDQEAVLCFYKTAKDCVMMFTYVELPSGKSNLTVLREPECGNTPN
Procedure: as §1

Point of comparison: B5, αvβ5 signal 0.526 OD. Against it:
- B1 — lower, 0.291 OD
- B2 — higher, 0.565 OD
- B3 — higher, 0.528 OD
- B4 — higher, 0.675 OD
- B6 — higher, 0.779 OD
- B7 — higher, 0.604 OD
- B8 — lower, 0.478 OD
- B9 — higher, 1.05 OD
- B10 — higher, 0.721 OD
- B11 — higher, 0.65 OD
- B12 — lower, 0.46 OD

Point of comparison: B1, αvβ5 signal/ng 30.7 signal/ng MICA. Against it:
- B2 — lower, 22.8 signal/ng MICA
- B3 — lower, 19.7 signal/ng MICA
- B4 — lower, 27.1 signal/ng MICA
- B5 — lower, 18.1 signal/ng MICA
- B6 — lower, 22.4 signal/ng MICA
- B7 — lower, 7.68 signal/ng MICA
- B8 — lower, 5.51 signal/ng MICA
- B9 — lower, 10.9 signal/ng MICA
- B10 — lower, 7.73 signal/ng MICA
- B11 — lower, 22.4 signal/ng MICA
- B12 — lower, 10 signal/ng MICA
